# Results taken from PMC9820451, “Coprinopsis cinerea Galectin CGL1 Induces Apoptosis and Inhibits Tumor Growth in Colorectal Cancer Cells” (International Journal of Molecular Sciences, 2022).
# Target: the molecule itself
# Assay: dynamic light scattering; dilutions of the purified galectin filtered through 0.22 µm membranes, Zetasizer Nano-S; molecular weight estimated from the hydrodynamic radius; self-association, tetramer
protein,measurement,value
"Coprinopsis cinerea galectin CGL1 (natural protein, galectin CGL1 of Coprinopsis cinerea, full-length cgl1 amplified from genomic DNA of strain Okayama 7 (#130; ATCC MYA-4618), cloned into pET22b(+); No removal of the tag is told) MLYHLFVNNQIKLQDDFKAEAVATIRSSVFNSKGGTTVFNFLSAGENILLHISIRPGENAIVFNSRTKGGAWGPEERVPYAGKFKGPNPSITVLDHGDRFQILFDNATAIYYTKRIKENAAAIAYSAENSLFSSPVTVDIHGLLPPLPPA",stoichiometry N,4
